These results are taken from US20080280834A1, “Compounds and methods for inhibiting apoptosis” (University of Pittsburgh of the Commonwealth System of …, priority 2005, published 2008).

Residues, ends and D or L forms follow the SMILES beside them. No end group written: not given here.

T1 sequence (P25445 with tags, fused parts or gaps limits assumed): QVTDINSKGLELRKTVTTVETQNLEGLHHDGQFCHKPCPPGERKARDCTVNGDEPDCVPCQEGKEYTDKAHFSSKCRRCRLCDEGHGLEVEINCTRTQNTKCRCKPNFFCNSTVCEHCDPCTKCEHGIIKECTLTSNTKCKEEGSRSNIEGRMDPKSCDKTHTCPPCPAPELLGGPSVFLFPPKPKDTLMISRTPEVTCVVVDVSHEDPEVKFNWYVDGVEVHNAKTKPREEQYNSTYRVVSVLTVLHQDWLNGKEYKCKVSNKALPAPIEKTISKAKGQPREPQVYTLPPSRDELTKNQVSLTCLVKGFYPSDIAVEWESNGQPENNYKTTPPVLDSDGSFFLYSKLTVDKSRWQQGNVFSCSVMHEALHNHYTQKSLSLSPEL

One test has as its target T1, FasR (Homo sapiens, UniProt P25445).
T1 construct: Fc (IgG Fc fusion partner); purchased R&D Systems 326-FS-050
Nature of the test: ELISA binding of peptides to FasR (association constant). Conditions: ELISA, 1 nM to 1 μM; fourth residue varied. The text has this: (§1) Cell Lines, Chemicals, Antibodies & Proteins. Recombinant Human Fas/TNFRSF6/Fc Chimera (cat no. 326-FS-050), Human Fas Ligand/TNFSF6 (cat. No. 126-FL), Anti-human Fas TNFRSF6 Polyclonal Antibody (cat. no. AF326) and Anti-6×Histidine Cross-Linking Ab (cat no. MAB050) were purchased from R&D Systems. Anti-human, IgM-HRP (cat. no. AP320P) was purchased from Chemicon International. Phosphate buffered saline (cat. no. P3563), sodium azide (cat. no. 71289) and 3,3′,5,5′-Tetramethylbenzidine (TMB) Liquid Substrate System for ELISA (cat. no. T0440) were purchased from Sigma-Aldrich. Cliniplate 96-well microplates w/enhanced binding (cat. no. 28298-604) were purchased from VWR. Costar, 96-well, cell culture assay plates (cat. no. 3632) were ordered from Corning Incorporated. Jurkat cells (ATCC no. CRL-1990) and L929 (ATCC no. CRL-2148) were purchased from ATCC and were propagated in RPMI 1640 medium with 2 mM L-glutamine, adjusted to contain 1.5 g/L sodium bicarbonate, 4.5 g/L glucose, 10 mM HEPES, and 1 mM sodium pyruvate, 90%; 10% fetal bovine serum. CellTiter Blue Cell Viability Assay (cat. no. TB317) was purchased from Promega.
ELISA. Peptides were dissolved in a coating buffer solution (0.05M Sodium Carbonate, 0.02% Sodium Azide, pH=9.6) at the appropriate concentrations to a final concentration of 10 μM. Dilutions were made accordingly to reach desired experimental concentrations. 100 μl aliquots of the peptide solution was added to each well and incubated for 2 hours. All incubations were carried out with shaking at T=37° C. Wells were washed by pipetting solution out of each well, adding 200 μL of washing solution (PBS-Tween; 0.5%), shaking for 15 minutes and emptying each well. Three wash cycles were carried out prior to addition of 200 μL of blocking solution (1% BSA in PBS buffer) to each well followed by incubation for 2 hours. Wells were then washed (as per above procedure) three times. Protein solutions of the appropriate concentrations (Vsolution 50 μL) were then added and incubated for 2 hours. After washing three times (as per above protocol) Fas specific antibody solution (˜1:20,000) was added to each well in 100 μL aliquots and incubated for 1 hour. After washing three times (as per above protocol) IgM-HRP solution (˜1:20,000) was added to each well in 100 μL aliquots and incubated (with shaking) for 1 hour at T=37° C. Wells were washed three times prior to the addition of ready-to-use TMD, followed by incubation for 30 minutes. 2M H2SO4 (3 drops) was added to stop colorimetric reaction and the absorption was taken at 450 nm on a Perkin-Elmer, Victor3 Model automated plate reader. Data was analyzed using standard regression fits in Excel.
Effect of Amino Acid Substitution on Binding Affinities. The binding affinity of each tetrapeptide was determined by standard ELISA with a concentration range of 1 nM to 1 μM. In the first series of peptides, alterations were made only to the tyrosine residue while retaining the final three amino acids homologous in the parent sequence (LGA).
For YLGT [tetrapeptide], the “Ka(M − 1), Measured Association Constants (Ka) for YLGA and YLGX Substituted Peptides” value is “no binding observed”.

As for YLGI [tetrapeptide], the “Ka(M − 1), Measured Association Constants (Ka) for YLGA and YLGX Substituted Peptides” value is on record as 3 × 10^7 M − 1. On the same count and under the same terms, for YLGL [tetrapeptide] the value was 3 × 10^7 M − 1.

The same test, now with this note: ELISA, 1 nM to 1 μM; second residue varied.
As to YFGA [tetrapeptide], the “Ka(M^−1), Measured Association Constants (Ka) YLGA and YXGA Substituted Proteins” value was “no binding”. As to YVGA, the “Ka(M^−1), Measured Association Constants (Ka) YLGA and YXGA Substituted Proteins” value amounted to 2e+08 M⁻¹. On to YGGA [tetrapeptide], for which the “Ka(M^−1), Measured Association Constants (Ka) YLGA and YXGA Substituted Proteins” value turned out to be 1e+07 M⁻¹. Consider YIGA, for which the “Ka(M^−1), Measured Association Constants (Ka) YLGA and YXGA Substituted Proteins” value came out at 2e+08 M⁻¹. In the case of YTGA [tetrapeptide], the “Ka(M^−1), Measured Association Constants (Ka) YLGA and YXGA Substituted Proteins” value was “no binding”.

The test is the same for the next values; noted with them: ELISA, 1 nM to 1 μM; third residue varied.
YLLA [tetrapeptide]: the “Ka(M^−1), Measured Association Constants (Ka) for YLGA and YLXA Substituted Peptides” value was found to be 1e+06 M⁻¹. For the compound YldAA, the “Ka(M^−1), Measured Association Constants (Ka) for YLGA and YLXA Substituted Peptides” value is on record as “no binding observed”. Consider YLAA [tetrapeptide], for which the “Ka(M^−1), Measured Association Constants (Ka) for YLGA and YLXA Substituted Peptides” value was found to be 1e+06 M⁻¹. With YLIA [tetrapeptide], the “Ka(M^−1), Measured Association Constants (Ka) for YLGA and YLXA Substituted Peptides” value is “no binding observed”.

Still in this test, the particulars now being: ELISA, concentration range 1 nM to 1 μM; first residue varied.
Regarding GLGA [tetrapeptide], the “Ka(M^−1), Measured Association Constants (Ka) for YLGA to XLGA Substituted Peptides” value is recorded as “no binding”. On to ILGA [tetrapeptide], for which the “Ka(M^−1), Measured Association Constants (Ka) for YLGA to XLGA Substituted Peptides” value is 9e+06 M⁻¹. On to ELGA [tetrapeptide], for which the “Ka(M^−1), Measured Association Constants (Ka) for YLGA to XLGA Substituted Peptides” value is 5e+07 M⁻¹.

Turning to ALGA [tetrapeptide], the “Ka(M^−1), Measured Association Constants (Ka) for YLGA to XLGA Substituted Peptides” value is “no binding”. Still for that read-out and setting: for TLGA [tetrapeptide] the value was 2e+08 M⁻¹; for DLGA [tetrapeptide], 5e+07 M⁻¹; for KLGA [tetrapeptide], 8e+06 M⁻¹.

Staying with this test, now noted: Table 7; peptides based on the α-Met sequence, Fas receptor.
Turning to HHIYLGATNYIY [HHI YLG ATN YIY], the “Ka (M^−1), Elongated Peptide Sequences” value stood at 3e+08 M⁻¹.

Regarding HHIYLGA [HHI YLG A], the “Ka (M^−1), Elongated Peptide Sequences” value was 3e+08 M⁻¹. Take HIYLGATNYIY [HI YLG ATN YIY]: the “Ka (M^−1), Elongated Peptide Sequences” value turned out to be 3e+08 M⁻¹. Consider IYLGATNYIY [I YLG ATN YIY], for which the “Ka (M^−1), Elongated Peptide Sequences” value stood at 3e+08 M⁻¹.

On to HHIYLGATNYI [HHI YLG ATN YI], for which the “Ka (M^−1), Elongated Peptide Sequences” value was found to be 3e+08 M⁻¹.

As for HHIYLGAT [HHI YLG AT], the “Ka (M^−1), Elongated Peptide Sequences” value came out at 3e+08 M⁻¹. Turning to YLGATNYIY [YLG ATN YIY], the “Ka (M^−1), Elongated Peptide Sequences” value came out at 3e+08 M⁻¹. With HHIYLGATN [HHI YLG ATN], the “Ka (M^−1), Elongated Peptide Sequences” value worked out at 3e+08 M⁻¹. Still for that read-out and setting: the figure for HHIYLGATNY [HHI YLG ATN Y] is 3e+08 M⁻¹.

Staying with this test, now noted: relative to parent YLGA.
For YGGA [tetrapeptide], the “decrease in measured Ka” value was found to be 20 fold.

The next test addresses T2, TNFR1 (Mus musculus, UniProt P25118).
T2 sequence (P25118 30-454): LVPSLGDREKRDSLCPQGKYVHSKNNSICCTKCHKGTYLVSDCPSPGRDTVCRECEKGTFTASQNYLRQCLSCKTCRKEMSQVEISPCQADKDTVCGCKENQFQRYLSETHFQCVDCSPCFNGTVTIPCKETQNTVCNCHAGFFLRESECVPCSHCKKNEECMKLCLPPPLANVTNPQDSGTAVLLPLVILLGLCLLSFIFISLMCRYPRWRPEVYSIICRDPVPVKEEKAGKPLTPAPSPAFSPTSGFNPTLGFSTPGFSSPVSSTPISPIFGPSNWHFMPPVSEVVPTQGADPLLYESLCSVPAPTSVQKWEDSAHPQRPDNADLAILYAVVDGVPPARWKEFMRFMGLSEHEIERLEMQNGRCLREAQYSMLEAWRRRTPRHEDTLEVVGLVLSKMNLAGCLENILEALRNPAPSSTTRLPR
Nature of the test: Inhibition of the TNFR / TNFR1 pathway (EC50). Conditions: Table 8. Format: cell-based. The text has this:
This correlation implies a peptide-protein interaction mechanism, wherein whereby tightly bound peptides are capable of blocking FasL association with the receptor and as such, inhibit FasL induced apoptosis.
RSSYLGA [RSSYLGA]: the “TNFR1 EC50” value is “no inhibition”. As to RSSYLGAVF-NH2 [RSSYLGAVF], the “TNFR1 EC50” value is listed as “no inhibition”.

In another test the test system is Jurkat cells.
Test: not given
Format: cell-based, human.
Conditions: not given
Source text: as §1
Apoptosis Assay. […] Control reactions were diluted with sterile PBS buffer to final volume of 200 μL per well. Peptide solutions (in PBS buffer, pH=7.3) were added in appropriate volumes to reach the desired concentrations in each well given a total volume of 200 μL per well. Apoptosis was induced by the addition of cross-linked human FasL at a concentration of 0.5 ng/ml. Plates were then incubated under sterile conditions, with shaking in a Kendro, model Hera Cell 150 incubator at T=37° C., % CO2=5 for 3 hours. A Cell Titer Blue Cell Viability Assay kit was used (as per accompanying protocol) to determine % apoptosis in cells. Fluorescence readings (560/590 nm) were taken after 4 hours under above cited incubation conditions on a Perkin-Elmer, Victor3 Model automated plate reader. Data was analyzed using standard regression fits in Excel.
Correlating the In-vitro Binding Assays with Cellular Activity. FasL activated apoptosis is known to occur by binding of the ligand to the receptor thereby initiating a series of signaling events leading to caspase production and subsequent cell death. If the YLGA (SEQ ID NO:1) motif isolated in both the α-Met and FasL proteins, is indeed the primary sequence responsible for binding to FasR then at a given concentration, peptides of sufficient Ka values should preferably bind to the receptor. This in turn would block the binding site from FasL and inhibiting cell death in the presence of both peptide and FasL. In order to examine this possibility, Jurkat cells (known to upregulate the Fas receptor) were treated with varying concentrations of peptide and then exposed to recombinant FasL.
In turn, `CC(C)C[C@H](NC(=O)[C@@H](N)CO)C(=O)NCC(=O)N[C@@H](C)C(N)=O` [SLGA] (H-SLGA-NH2) displayed an EC50 of 6 nM.

The compound `CC(C)C[C@H](NC(=O)[C@@H](N)CC(C)C)C(=O)NCC(=O)N[C@@H](C)C(N)=O` [LLGA] (H-LLGA-NH2) displayed a concentration giving a half-maximal response (EC50) of 93 nM. Regarding `C[C@H](NC(=O)CNC(=O)[C@H](C)NC(=O)[C@@H](N)Cc1ccc(O)cc1)C(N)=O` [YAGA] (H-YAGA-NH2), the midpoint of the response, the EC50, lay at 6 nM.

The test is the same for the next values; noted with them: Table 5; Jurkat cells, peptide then recombinant FasL, cell viability.
YLAA [tetrapeptide]: the “EC50 (nM)” value is given as “no inhibition”. Still for that read-out and setting: the entry for “LGA [LGA (trimer), Y-free trimer peptide]” is “no inhibition”.

The same test, now with this note: Table 8; read-out: Fas EC50.
Take RSSYLGA [RSSYLGA]: the EC50 is 3.28 nM.
